experiment: soluble on expression in E. coli; label from the status in PepcDB or PDB records

| Sequence | soluble on expression in E. coli |
| --- | --- |
| MSWMDKFDPKLQTMVKEVDAQIAPQLAKIDARILENQNKVLTSFQNHHVAESYLTGSTGYGHNDEGRDVLEAIYADVLGGEDALVRPQFVSGTHAIGVALLGLVRPGDDIVYITGKPYDTLQEVLGLAGNGIGAPQEYGIGVDYVDLLPNGAVDDDAVKARLNDKTKVVAIQRSRGYATRDSFTVDQIAAMIKVVRSVLPNVWIFVDNAYGEVSETKEPLEVGADVMAGSLFKNAGGGMAKTGGYIVGKKDLIDRISYRFTVPGLGGAEGATVGALADMYQGFFISPQTTGNAIKGAIFEAALFAKLGLDVSPAWDAPRTDLIQTVNFGNADDMVKFAKAVQANSPVDSFVTPIPEKMAGYEDQVIMAGGTFVAGSTIEFSGDGPLRPPYTLYLQGGLTYAHIKLATMGAAQSTFFDNLEHHHHHH | not soluble |
| MSWQAYVDTSLLGTGKIDRAAIVSRAGDSVWAASAGFNLSPQEIQGLAAGFQDPPSMFGTGIILAGQKYITIRAEGRSIYGKLQKEGIICVATKLCILVSHYPETTLPGEAAKITEALADYLVGVGY | soluble |
| MSYFKNAFNQKSLIDDSSVYLEPCSSSNFIELKRMHYNEENTKKTWDIIKSLDSVAVLLYEKESDCFVIVKQFRPAIYARRFHFKCDQDQTIDGYTYELCAGLVDKANKSLEEIACEEALEECGYQISPKNLETIGQFYSATGLSGSLQTLYYAEVHKNLKVSKGGGIDTERIEVLFLERSKALDFIMDFQYAKTTGLSLAILWHLKKFKNV | not soluble |
| MSYLAKFTSPNQMKKLIKTVVADLLGSDEDLKTSSCHVISNLAANSQEMLKGYTSQIVPYVLLEKCREVPKEDEIAREKQEKWNDVWAELVPTTSSAVRLYKEEILNLAIDLVTNNEVWAVRKQAAVMIRVTFENLKKDAGIDVAKKSALSLRDTLNGRIWDGKIEILRALTSAFEAGGADFKRNMSATEIEDMETVLRREASKKNMEYAGAGLATIATWAVISESVESATWLAKKIDENVTKLIGARNDADSDDNMDGLSNLEKEIRASKLVTLNLTALAISLPAFNNAEEAESTLSQIAGYVKSTVIAWKSKQFFFNELAKSLEKWTPREPVAAGKLIDNILEQADELCAQQKKTVATDALQVVLRIQERSDRFGVDRNSVLDSVNRGVAGSETGLGSRFEAKMDTD | not soluble |
| MSYLDTATDLPNQTLFLEYLNIALSNARRHHAQVGVLLCQINNWSDLKRKRGDAVANAFLQEAGQKLKSNLRNGDIVSRWDKDEFIFLVSKVQDTSSLLGIAQRLMKPVLAPVTAGGRPFQPEITYGVALYPVDGEQVNDLIGHIRENLQQLLPQPTLEHHHHHH | not soluble |
| MSYNFELSYVKGCDSVHVVEHKTSAVYYPRSNGAAERFVDTLKRGIAKIKGEGSVNQQILNKFLISYRNTPHSALNGATPAECHFGRKIRTTMSLLMLTDRVLKVPKLTQYQQNMKHHYDLRNGARAKNFQVNQKVYVQVHQGNKSHWKHGVIRRKFGGVLYEVQVGDRMQKSHVNQIRTRCGDYSREDIFEETIYPLFFSTPGKFTSCSDNKSRSGATGGETNLFDSSGSSVNPRLSSDSFGFVGESGGDEMSRSDDPVVTSTVPSTDLNRGSRITSELKKKESNAVRGQPRGSSSTNNNDSSAPGYASRSHPTTDPSHSVRRSSRIRRVPDRYGSSVEHPLTSTGTPRGSTSTQLGQASTRNGSRYTASGRTPSCQGNRYSSIRGEGVTARRERVRSTWR | not soluble |
| MSYPIKSTLIILRGNSASGKTTIAKQLQEHFGQGTLLVSQDVVRRDMLRVHDTIGNLSHDLLFEITKYGKGKCEFVILEGILNSHRYGDMLKELIHLFEGNAYTYYFDLSLKETIRRHNTREKRHEFGEDSLQKWYNPHDTIEVTRETIFTDNLTQKDIFDAILNDVMVRKLEHHHHHH | soluble |
| MSYPSMSSFSTNVPDSENSSRSSVDGYNLKDTTSEKIKQFRENNKRKTSNSSSEEEPETEEGDPSRKLSSKSAEDKFVGRGIDAPRGRIANIRRESSCSVDSEAAHERLTKASQQVSTGFDDIALDSERSPGTSAEFRRRAPSFNTVIGEPISVVTNAFIPHSCSPSPTRQQADLIKQCYSPSTQQMVRPNISYSPSPRESPAQSPTRHAHKLKFQRAESPICRQPIKRKLTVTTLAETDIKRLFVPRSNTSPLVTDKTFPYPQNVGQLFESASTSSEFSSFSVPHSPGPLRAMTPLSSVSVGDQEENSPSVKDAEEKTTDNDEEMQDVEMSDNGTEVDDDLIRAATEAPLPDDDDQNDFAY | not soluble |
| MSYTATNQPVRAPPLNSDYELIDGDPYFTRVVSYFRFSDYVNWAVITASFPLGMKLWEKIVPSQGKGLKPSVVNPVTLRVSTLLGFFGGFCLNYVKSSQRFLGWRENSREVKLDRFEIKQKLSQGVLPYNEHLSKLDDRNKDISNRNSQYSHALLFVIPWFNTTYHPYHQVDLKKYYINREGEENWGFELKPLDEIYAKYGKKF | not soluble |
| MSYTHILVAVAVTPESHQLLAKAVSIARPVQAKVSLITLASDPELYNQFAAPMMEDLRAVMHEETENFLKMLGEKADYPIEQTFIASGELSQHILAVCRKHHVDLVICGNHNHSFFSRASCSAKSVVSASQVDVLLVPLAGD | not soluble |
| MSYVIDRRLNGKNKSTVNRQRFLRRYREHIKKAVEEAVSRRSITDMEHGEQISIPGRDIDEPVLHHGRGGRQTVVHPGNKEFTAGEHIARPSGGGGGRGGGKASNSGEGMDDFVFQITQEEFLDFMFEDLELPNLVKRHITGTDTFKTVRAGISNDGNPSRINIVRTLRSAHARRIALSGGSRAKLRAALKELERIKREEPDNLGDIQELELEIAKLRARIDRVPFLDTFDLKYNLLVKQPNPTSKAVMFCLMDVSGSMTQATKDIAKRFFILLYLFLKRNYEKIEVVFIRHHTSAREVDEEEFFYSRETGGTIVSSALKMMQEIMAERYPTHEWNIYAAQASDGDNWNDDSPVCRDILLKQIMPFVQYYTYVEITPREHQALWFEYERVREAFEDSFAQQQIVSASDIYPVFRELFQRRLVAKLAAALEHHHHHH | not soluble |
| MTAFSTLNVLPPAQLTNLNELGYLTMTPVQAAALPAILAGKDVRVQAKTGSGKTAAFGLGLLQQIDASLFQTQALVLCPTRELADQVAGELRRLARFLSNTKILTLCGGQPFGMQRDSLQHAPHIIVATPGRLLDHLQKGTVSLDALNTLVMDEADRMLDMGFSDAIDDVIRFAPASRQTLLFSATWPEAIAAISGRVQRDPLAIEIDSTDALPPIEQQFYETSSKGKIPLLQRLLSLHQPSSCVVFCNTKKDCQSVCDALNEVGQSALSLHGDLEQRDRDQTLVRFANGSARVLVATDVAARGLDIKSLELVVNFELAWDPEVHVHRIGRTARAGNSGLAISFCAPEEAQRANIISDMLQIKLNWQTLPANSSIVPLEAEMATLCIDGGKKAKMRPGDVLGALTGDIGLDGADIGKIAVHPAHVYVAVRQAVAHKPWKQLQGGKIKGKTCRVRLLK | soluble |
| MTAMLSMACRRAVRAGAHCDEGGHVKAFDYPDSMNNKPVPIVLRRTSIGLILFILPAMLIGCSRVPVKTQPKPASVNVWPLTTPANPEAANEVVMRALSLVGTPYRFGGNTPESGFDCSGLVSYVYRDALDLRLPRTSYELAAVQGPKIDAEQLTTGDLVFFGSARSVTHVGIYLSEGRFVHAPSSGGTVRLDRLDTPYWRDHYTGAKRVLRIIEAKVSMVFTDKCHLTFTHYGEESAQAALHTYFNIGDINQVEVQGLPETCFNSLNQQQENVPSPRHISENVDCIYSAENMQNQILDKSFNRTIALHHHNASQFVLWNPWHKKTSGMSETGYQKMLCLETARIHHLLEFGESLSVEISLKG | soluble |
| MTANREAIDMARVAAGAAAAKLADDVVVIDVSGQLVITDCFVIASGSNERQVNAIVDEVEEKMRQAGYRPARREGAREGRWTLLDYRDIVVHIQHQDDRNFYALDRLWGDCPVVPVDLSANSAGAQ | not soluble |
| MTAPVPTCNMSGNPINLHKLTLIMPLPSPEARQFSLKLQTLIAEKIGKHGNWIPFSRFMELVLYAPQYGYYTGGSHKIGNTGDFITAPTLTSLFAQTLARQLQELLSQTAGNIYEFGAGTGQLAADLLGSISDGISRYYIIEISPELAARQKNLIQARAPEASQKVVHLTALPEAFDGIIIGNEVLDAMPVEIVRKNEGGSFEHVGVCLDNDRFTYSARPLHDLQLSALASLYFPQTDYPYTSELHPQQYAFIRTLASRLEHGCMIFIDYGFDAAQYYHPQRNQGTLIGHYRHHIIHNPFDFIGLADLTAHVNFTDIAQAGTDAGLDLIGYLPQSHFLLNLGITELLAQTGKTDSAAYICEAAAVQKLIDQHEMGELFKVIAFGKNIGIDWAGFRFGDICHKL | not soluble |
| MTARARSALLDAEHIVGYTTYVELLPDEITEGADDIYNTPMCGEVSRTEEAIDRALAGNDVAIIGSGDPNVYALAGLALEIIESKGATATMLDFDVVPGVP | not soluble |
| MTASIFSGVIPALMTPCRQDRTPDFDALVRKGKELIADGMSAVVYCGSMGDWPLLTDEQRMEGVERLVKAGIPVIVGTGAVNTASAVAHAVHAQKVGAKGLMVIPRVLSRGSVIAAQKAHFKAILSAAPEIPAVIYNSPYYGFATRADLFFALRAEHKNLVGFKEFGGPADMRYAAENITSRDDEVTLMIGVDTAVVHGFVNCGATGAITGIGNVLPKEVIHLCKLSQAAAKGDADARARALELEQALAVLSSFDEGPDLVLYFKYMMVLKGDKEYTLHFNETDALTDSQRGYVEAQFKLFNSWYADWSKLPGAVQTCKAA | soluble |
| MTAYAKWSSCFQNGIDSWNNLTTTAEFLNHAGNISSNCKIILDLNIVKLSDSKFYISPQVQKSLTHATVGISSNFEAESQLKKVLELSSHHFLICQLFQRLPIINIFGATPKLSERERELFQKIGNYYPVAIGTKSGLVNVTMKPQYNYSLNDSAVPSSKSEFQLDLIYFLKDVLKQDFYYSIWFNIFFDELPNMLHRNRNFDENRITLCQININIDNDQKTNMKQFFKSLISDKRYVIIFEVVNDYGVLFLINFDNTTCRKKLGIVRNV | not soluble |
